# Measurements: IntAct's records for PubMed 18320024
# B1: Tetratricopeptide repeat protein 4 (Homo sapiens), O95801 (parent)
# chain: MEQPGQDPTSDDVMDSFLEKFQSQPYRGGFHEDQWEKEFEKVPLFMSRAPSEIDPRENPDLACLQSIIFDEERSPEEQAKTYKDEGNDYFKEKDYKKAVISYTEGLKKKCADPDLNAVLYTNRAAAQYYLGNFRSALNDVTAARKLKPCHLKAIIRGALCHLELKHFAEAVNWCDEGLQIDAKEKKLLEMRAKADKLKRIEQRDVRKANLKEKKERNQNEALLQAIKARNIRLSEAACEDEDSASEGLGELFLDGLSTENPHGARLSLDGQGRLSWPVLFLYPEYAQSDFISAFHEDSRFIDHLMVMFGETPSWDLEQKYCPDNLEVYFEDEDRAELYRVPAKSTLLQVLQHQRYFVKALTPAFLVCVGSSPFCKNFLRGRKVYQIR
# B2: Tetratricopeptide repeat protein 4 (Homo sapiens), O95801 (parent)
# chain: B1 chain
# partner: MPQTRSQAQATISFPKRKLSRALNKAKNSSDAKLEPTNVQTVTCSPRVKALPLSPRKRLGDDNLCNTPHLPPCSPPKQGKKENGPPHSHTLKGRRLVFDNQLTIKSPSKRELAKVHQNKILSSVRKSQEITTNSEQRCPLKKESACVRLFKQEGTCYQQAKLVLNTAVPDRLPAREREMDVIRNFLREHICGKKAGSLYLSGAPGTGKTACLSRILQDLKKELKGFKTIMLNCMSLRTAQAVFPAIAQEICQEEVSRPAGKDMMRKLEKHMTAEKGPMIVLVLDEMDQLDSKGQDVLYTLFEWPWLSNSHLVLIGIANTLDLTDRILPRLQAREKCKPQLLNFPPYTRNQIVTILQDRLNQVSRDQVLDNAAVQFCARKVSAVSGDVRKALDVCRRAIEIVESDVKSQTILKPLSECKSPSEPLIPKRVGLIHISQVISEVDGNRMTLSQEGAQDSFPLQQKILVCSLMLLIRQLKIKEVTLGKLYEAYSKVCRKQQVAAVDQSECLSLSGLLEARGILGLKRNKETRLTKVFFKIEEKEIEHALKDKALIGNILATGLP
# Variants of: B1
# Details: with hs90b_human HSP90AB1, P08238
# Chain of hs90b_human HSP90AB1, P08238 (P08238 whole entry): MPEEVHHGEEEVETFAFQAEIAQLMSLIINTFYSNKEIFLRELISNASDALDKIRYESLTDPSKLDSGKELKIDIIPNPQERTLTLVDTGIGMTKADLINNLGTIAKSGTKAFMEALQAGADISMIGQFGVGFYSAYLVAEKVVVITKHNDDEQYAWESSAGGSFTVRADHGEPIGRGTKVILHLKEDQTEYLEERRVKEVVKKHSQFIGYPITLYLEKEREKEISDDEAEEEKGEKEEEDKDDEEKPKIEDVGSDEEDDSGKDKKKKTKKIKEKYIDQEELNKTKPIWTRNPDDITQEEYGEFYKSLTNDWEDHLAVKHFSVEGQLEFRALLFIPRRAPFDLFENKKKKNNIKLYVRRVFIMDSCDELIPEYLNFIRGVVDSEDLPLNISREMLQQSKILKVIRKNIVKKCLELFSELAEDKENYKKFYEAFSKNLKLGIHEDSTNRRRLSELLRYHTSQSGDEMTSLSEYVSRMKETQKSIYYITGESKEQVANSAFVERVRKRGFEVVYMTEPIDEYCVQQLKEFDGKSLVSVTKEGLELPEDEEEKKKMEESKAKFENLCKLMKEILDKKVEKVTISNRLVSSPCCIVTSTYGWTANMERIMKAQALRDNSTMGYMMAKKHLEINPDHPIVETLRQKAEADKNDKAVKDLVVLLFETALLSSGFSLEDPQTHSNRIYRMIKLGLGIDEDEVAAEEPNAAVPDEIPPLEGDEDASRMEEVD
row,Variant,effect of a mutation on the interaction
1,MEQPGQDPTSDDVMDSFLEKFQSQPYRGGFHEDQWEKEFEKVPLFMSRAPSEIDPRENPDLACLQSIIFDEERSPEAQAKTYKDEGNDYFKEKDYKKAVISYTEGLKKKCADPDLNAVLYTNRAAAQYYLGNFRSALNDVTAARKLKPCHLKAIIRGALCHLELKHFAEAVNWCDEGLQIDAKEKKLLEMRAKADKLKRIEQRDVRKANLKEKKERNQNEALLQAIKARNIRLSEAACEDEDSASEGLGELFLDGLSTENPHGARLSLDGQGRLSWPVLFLYPEYAQSDFISAFHEDSRFIDHLMVMFGETPSWDLEQKYCPDNLEVYFEDEDRAELYRVPAKSTLLQVLQHQRYFVKALTPAFLVCVGSSPFCKNFLRGRKVYQIR [E77A],decreasing interaction strength
2,MEQPGQDPTSDDVMDSFLEKFQSQPYRGGFHEDQWEKEFEKVPLFMSRAPSEIDPRENPDLACLQSIIFDEERSPEEQAKTYKDEGNDYFKEKDYKKAVISYTEGLKKKCADPDLNAVLYTNRAAAQYYLGNFRSALNDVTAARKLKPCHLKAIIRGALCHLELKHFAEAVNWCDEGLQIDAKEKKLLEMRAKADKLKRIEQRDVRKANLKEKKERKQNEALLQAIKARNIRLSEAACEDEDSASEGLGELFLDGLSTENPHGARLSLDGQGRLSWPVLFLYPEYAQSDFISAFHEDSRFIDHLMVMFGETPSWDLEQKYCPDNLEVYFEDEDRAELYRVPAKSTLLQVLQHQRYFVKALTPAFLVCVGSSPFCKNFLRGRKVYQIR [N217K],decreasing interaction strength
3,MEQPGQDPTSDDVMDSFLEKFQSQPYRGGFHEDQWEKEFEKDPLFMSRAPSEIDPRENPDLACLQSIIFDEERSPEEQAKTYKDEGNDYFKEKDYKKAVISYTEGLKKKCADPDLNAVLYTNRAAAQYYLGNFRSALNDVTAARKLKPCHLKAIIRGALCHLELKHFAEAVNWCDEGLQIDAKEKKLLEMRAKADKLKRIEQRDVRKANLKEKKERNQNEALLQAIKARNIRLSEAACEDEDSASEGLGELFLDGLSTENPHGARLSLDGQGRLSWPVLFLYPEYAQSDFISAFHEDSRFIDHLMVMFGETPSWDLEQKYCPDNLEVYFEDEDRAELYRVPAKSTLLQVLQHQRYFVKALTPAFLVCVGSSPFCKNFLRGRKVYQIR [V42D],with no effect
4,MEQPGQDPTSDDVMDSFLEKFQSQPYRGGFHEDQWEKEFEKVPLFMSRAPSEIDPRENPDLACLQSMIFDEERSPEEQAKTYKDEGNDYFKEKDYKKAVISYTEGLKKKCADPDLNAVLYTNRAAAQYYLGNFRSALNDVTAARKLKPCHLKAIIRGALCHLELKHFAEAVNWCDEGLQIDAKEKKLLEMRAKADKLKRIEQRDVRKANLKEKKERNQNEALLQAIKARNIRLSEAACEDEDSASEGLGELFLDGLSTENPHGARLSLDGQGRLSWPVLFLYPEYAQSDFISAFHEDSRFIDHLMVMFGETPSWDLEQKYCPDNLEVYFEDEDRAELYRVPAKSTLLQVLQHQRYFVKALTPAFLVCVGSSPFCKNFLRGRKVYQIR [I67M],with no effect

# Variants of: B1
# Details: with hsp7c_human HSPA8, P11142
# Chain of hsp7c_human HSPA8, P11142 (P11142 whole entry, looked up): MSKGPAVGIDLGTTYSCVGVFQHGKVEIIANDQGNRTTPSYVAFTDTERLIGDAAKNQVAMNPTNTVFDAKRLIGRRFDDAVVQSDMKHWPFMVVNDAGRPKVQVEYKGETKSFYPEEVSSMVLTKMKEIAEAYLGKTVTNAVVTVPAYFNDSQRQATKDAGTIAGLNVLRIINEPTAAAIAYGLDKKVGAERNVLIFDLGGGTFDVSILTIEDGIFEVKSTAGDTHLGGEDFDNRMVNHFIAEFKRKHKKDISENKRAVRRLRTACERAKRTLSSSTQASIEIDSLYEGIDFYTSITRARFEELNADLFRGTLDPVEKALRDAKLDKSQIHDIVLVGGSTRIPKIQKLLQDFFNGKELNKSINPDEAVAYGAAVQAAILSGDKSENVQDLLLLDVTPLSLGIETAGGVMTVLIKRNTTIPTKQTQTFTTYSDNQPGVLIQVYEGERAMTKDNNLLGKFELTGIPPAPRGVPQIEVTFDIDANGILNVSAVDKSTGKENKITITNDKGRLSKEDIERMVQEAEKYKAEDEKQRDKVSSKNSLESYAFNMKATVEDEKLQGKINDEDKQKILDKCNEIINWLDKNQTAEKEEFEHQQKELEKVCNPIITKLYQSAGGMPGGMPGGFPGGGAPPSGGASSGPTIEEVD
row,Variant,effect of a mutation on the interaction
1,MEQPGQDPTSDDVMDSFLEKFQSQPYRGGFHEDQWEKEFEKVPLFMSRAPSEIDPRENPDLACLQSIIFDEERSPEAQAKTYKDEGNDYFKEKDYKKAVISYTEGLKKKCADPDLNAVLYTNRAAAQYYLGNFRSALNDVTAARKLKPCHLKAIIRGALCHLELKHFAEAVNWCDEGLQIDAKEKKLLEMRAKADKLKRIEQRDVRKANLKEKKERNQNEALLQAIKARNIRLSEAACEDEDSASEGLGELFLDGLSTENPHGARLSLDGQGRLSWPVLFLYPEYAQSDFISAFHEDSRFIDHLMVMFGETPSWDLEQKYCPDNLEVYFEDEDRAELYRVPAKSTLLQVLQHQRYFVKALTPAFLVCVGSSPFCKNFLRGRKVYQIR [E77A],with no effect
2,MEQPGQDPTSDDVMDSFLEKFQSQPYRGGFHEDQWEKEFEKVPLFMSRAPSEIDPRENPDLACLQSIIFDEERSPEEQAKTYKDEGNDYFKEKDYKKAVISYTEGLKKKCADPDLNAVLYTNRAAAQYYLGNFRSALNDVTAARKLKPCHLKAIIRGALCHLELKHFAEAVNWCDEGLQIDAKEKKLLEMRAKADKLKRIEQRDVRKANLKEKKERKQNEALLQAIKARNIRLSEAACEDEDSASEGLGELFLDGLSTENPHGARLSLDGQGRLSWPVLFLYPEYAQSDFISAFHEDSRFIDHLMVMFGETPSWDLEQKYCPDNLEVYFEDEDRAELYRVPAKSTLLQVLQHQRYFVKALTPAFLVCVGSSPFCKNFLRGRKVYQIR [N217K],with no effect
3,MEQPGQDPTSDDVMDSFLEKFQSQPYRGGFHEDQWEKEFEKDPLFMSRAPSEIDPRENPDLACLQSIIFDEERSPEEQAKTYKDEGNDYFKEKDYKKAVISYTEGLKKKCADPDLNAVLYTNRAAAQYYLGNFRSALNDVTAARKLKPCHLKAIIRGALCHLELKHFAEAVNWCDEGLQIDAKEKKLLEMRAKADKLKRIEQRDVRKANLKEKKERNQNEALLQAIKARNIRLSEAACEDEDSASEGLGELFLDGLSTENPHGARLSLDGQGRLSWPVLFLYPEYAQSDFISAFHEDSRFIDHLMVMFGETPSWDLEQKYCPDNLEVYFEDEDRAELYRVPAKSTLLQVLQHQRYFVKALTPAFLVCVGSSPFCKNFLRGRKVYQIR [V42D],decreasing interaction strength
4,MEQPGQDPTSDDVMDSFLEKFQSQPYRGGFHEDQWEKEFEKVPLFMSRAPSEIDPRENPDLACLQSMIFDEERSPEEQAKTYKDEGNDYFKEKDYKKAVISYTEGLKKKCADPDLNAVLYTNRAAAQYYLGNFRSALNDVTAARKLKPCHLKAIIRGALCHLELKHFAEAVNWCDEGLQIDAKEKKLLEMRAKADKLKRIEQRDVRKANLKEKKERNQNEALLQAIKARNIRLSEAACEDEDSASEGLGELFLDGLSTENPHGARLSLDGQGRLSWPVLFLYPEYAQSDFISAFHEDSRFIDHLMVMFGETPSWDLEQKYCPDNLEVYFEDEDRAELYRVPAKSTLLQVLQHQRYFVKALTPAFLVCVGSSPFCKNFLRGRKVYQIR [I67M],decreasing interaction strength

# Variants of: B1
# Details: with hs90b_human HSP90AB1, P08238
# Remark: another data set of the same source
row,Variant,effect of a mutation on the interaction
1,MEQPGQDPTSDDVMDSFLEKFQSQPYRGGFHEDQWEKEFEKVPLFMSRAPSEIDPRENPDLACLQSIIFDEERSPEEQAKTYKDEGNDYFKEKDYKKAVISYTEGLKKKCADPDLNAVLYTNRAAAQYYLGNFRSALNDVTAARKLKPCHLKAIIEGALCHLELKHFAEAVNWCDEGLQIDAKEKKLLEMRAKADKLKRIEQRDVRKANLKEKKERNQNEALLQAIKARNIRLSEAACEDEDSASEGLGELFLDGLSTENPHGARLSLDGQGRLSWPVLFLYPEYAQSDFISAFHEDSRFIDHLMVMFGETPSWDLEQKYCPDNLEVYFEDEDRAELYRVPAKSTLLQVLQHQRYFVKALTPAFLVCVGSSPFCKNFLRGRKVYQIR [R156E],disrupting interaction strength
2,MEQPGQDPTSDDVMDSFLEKFQSQPYRGGFHEDQWEKEFEKVPLFMSRAPSEIDPRENPDLACLQSIIFDEERSPEEQAKTYKDEGNDYFKEKDYKKAVISYTEGLKKKCADPDLNAVLYTNRAAAQYYLGNFRSALNDVTAARKLKPCHLEAIIRGALCHLELKHFAEAVNWCDEGLQIDAKEKKLLEMRAKADKLKRIEQRDVRKANLKEKKERNQNEALLQAIKARNIRLSEAACEDEDSASEGLGELFLDGLSTENPHGARLSLDGQGRLSWPVLFLYPEYAQSDFISAFHEDSRFIDHLMVMFGETPSWDLEQKYCPDNLEVYFEDEDRAELYRVPAKSTLLQVLQHQRYFVKALTPAFLVCVGSSPFCKNFLRGRKVYQIR [K152E],disrupting interaction strength
3,MEQPGQDPTSDDVMDSFLEKFQSQPYRGGFHEDQWEKEFEKVPLFMSRAPSEIDPRENPDLACLQSIIFDEERSPEEQAKTYKDEGNDYFKEKDYKKAVISYTEGLKKKCADPDLNAVLYTNRAAAQYYLGNFRSALNDVTAARKLKPCHLEAIIEGALCHLELKHFAEAVNWCDEGLQIDAKEKKLLEMRAKADKLKRIEQRDVRKANLKEKKERNQNEALLQAIKARNIRLSEAACEDEDSASEGLGELFLDGLSTENPHGARLSLDGQGRLSWPVLFLYPEYAQSDFISAFHEDSRFIDHLMVMFGETPSWDLEQKYCPDNLEVYFEDEDRAELYRVPAKSTLLQVLQHQRYFVKALTPAFLVCVGSSPFCKNFLRGRKVYQIR [K152E;R156E],disrupting interaction strength

# Variants of: B2
# Details: with cdc6_human CDC6, Q99741
row,Variant,effect of a mutation on the interaction
1,MEQPGQDPTSDDVMDSFLEKFQSQPYRGGFHEDQWEKEFEKDPLFMSRAPSEIDPRENPDLACLQSIIFDEERSPEEQAKTYKDEGNDYFKEKDYKKAVISYTEGLKKKCADPDLNAVLYTNRAAAQYYLGNFRSALNDVTAARKLKPCHLKAIIRGALCHLELKHFAEAVNWCDEGLQIDAKEKKLLEMRAKADKLKRIEQRDVRKANLKEKKERNQNEALLQAIKARNIRLSEAACEDEDSASEGLGELFLDGLSTENPHGARLSLDGQGRLSWPVLFLYPEYAQSDFISAFHEDSRFIDHLMVMFGETPSWDLEQKYCPDNLEVYFEDEDRAELYRVPAKSTLLQVLQHQRYFVKALTPAFLVCVGSSPFCKNFLRGRKVYQIR [V42D],with no effect
2,MEQPGQDPTSDDVMDSFLEKFQSQPYRGGFHEDQWEKEFEKVPLFMSRAPSEIDPRENPDLACLQSMIFDEERSPEEQAKTYKDEGNDYFKEKDYKKAVISYTEGLKKKCADPDLNAVLYTNRAAAQYYLGNFRSALNDVTAARKLKPCHLKAIIRGALCHLELKHFAEAVNWCDEGLQIDAKEKKLLEMRAKADKLKRIEQRDVRKANLKEKKERNQNEALLQAIKARNIRLSEAACEDEDSASEGLGELFLDGLSTENPHGARLSLDGQGRLSWPVLFLYPEYAQSDFISAFHEDSRFIDHLMVMFGETPSWDLEQKYCPDNLEVYFEDEDRAELYRVPAKSTLLQVLQHQRYFVKALTPAFLVCVGSSPFCKNFLRGRKVYQIR [I67M],with no effect

# More lines, now with the values ahead:
row,effect of a mutation on the interaction,Variant
1,disrupting interaction strength,MEQPGQDPTSDDVMDSFLEKFQSQPYRGGFHEDQWEKEFEKVPLFMSRAPSEIDPRENPDLACLQSIIFDEERSPEAQAKTYKDEGNDYFKEKDYKKAVISYTEGLKKKCADPDLNAVLYTNRAAAQYYLGNFRSALNDVTAARKLKPCHLKAIIRGALCHLELKHFAEAVNWCDEGLQIDAKEKKLLEMRAKADKLKRIEQRDVRKANLKEKKERNQNEALLQAIKARNIRLSEAACEDEDSASEGLGELFLDGLSTENPHGARLSLDGQGRLSWPVLFLYPEYAQSDFISAFHEDSRFIDHLMVMFGETPSWDLEQKYCPDNLEVYFEDEDRAELYRVPAKSTLLQVLQHQRYFVKALTPAFLVCVGSSPFCKNFLRGRKVYQIR [E77A]
2,disrupting interaction strength,MEQPGQDPTSDDVMDSFLEKFQSQPYRGGFHEDQWEKEFEKVPLFMSRAPSEIDPRENPDLACLQSIIFDEERSPEEQAKTYKDEGNDYFKEKDYKKAVISYTEGLKKKCADPDLNAVLYTNRAAAQYYLGNFRSALNDVTAARKLKPCHLKAIIRGALCHLELKHFAEAVNWCDEGLQIDAKEKKLLEMRAKADKLKRIEQRDVRKANLKEKKERKQNEALLQAIKARNIRLSEAACEDEDSASEGLGELFLDGLSTENPHGARLSLDGQGRLSWPVLFLYPEYAQSDFISAFHEDSRFIDHLMVMFGETPSWDLEQKYCPDNLEVYFEDEDRAELYRVPAKSTLLQVLQHQRYFVKALTPAFLVCVGSSPFCKNFLRGRKVYQIR [N217K]
